In US10563220B2, “Compositions and methods for efficient targeting of transgenes” (priority 2015, dated 2020):

Assays:
knockout E. coli strain = format: cell-based; details: LB medium, acifluorfen 1 mM, flumioxazin 0.5 mM, lactofen 0.5 mM, fomesafen 1 mM, S-3100 100 μM
[1] = tested on: R0 transgenic maize plants; experiment: CTP-PPO herbicide tolerance evaluation in R0 transgenic maize (S-3100); format: in vivo
Method: R0 plants each containing a unique transformation event were sprayed with 40 g ai/ha or 80 g ai/ha of S-3100 at approximately the V5 growth stage and injury ratings were taken 4-7 days after treatment. The number of plants with ≤10% injury (highly tolerant) or ≤20% injury (tolerant) of the total number of sprayed plants was recorded. Plants that were determined to be single-copy events and that passed spray at ≤20% injury were advanced to selfing and outcrossing.

[2] = tested on: R1 transgenic cotton plants; experiment: R1 cotton greenhouse dicamba injury; details: dicamba 1120 g ai/ha at V4; rated 9 days after treatment; DMO SEQ ID NO:18
Text: Ten R1 seeds per event from 10 events for each construct and seed from DP393 cotton was planted to evaluate crop tolerance to post-emergence application of dicamba. Dicamba (Clarity) was applied at the V4 stage at 1120 g ai/ha. Crop injury percent ratings were taken 9 days after the treatment.

[3] = tested on: R1 transgenic soybean plants; experiment: R1 soybean greenhouse dicamba injury; details: dicamba 1120 g ai/ha at V4; rated 10 days after treatment; DMO SEQ ID NO:18
Text: Transgenic soybean plants were generated with two DNA constructs that were identical except for the APG6 CTP. The first DNA construct had APG6 (SEQ ID NO:1) operably linked to DMO (SEQ ID NO:18). The second DNA construct had the optimized APG6 (SEQ ID NO:2) operably linked to DMO (SEQ ID NO:18). Each DNA construct was used to transform A3555 soybean by Agrobacterium mediated transformation methods. Following transformation, R0 transgenic plants containing a single copy of the transgene were identified by PCR assay. Single-copy R0 plants were grown in greenhouse, and R1 seed was harvested. Ten R1 seeds per event for 4 events generated using each of the two DNA constructs and AG3555 seed was planted for evaluation of crop tolerance to post-emergence dicamba treatment under standard greenhouse growth conditions. Dicamba (Clarity) was applied at the V4 stage at 1120 g ai/ha. Crop injury ratings were taken 10 days after the treatment.

[4] = tested on: transgenic single-copy R0 soybean plants; experiment: S-3100 efficacy evaluation in R0 soybean; details: PPO H_N90; 20 g ai/ha S-3100 at about V3; 14 days after treatment
Text: Transgenic single-copy R0 plants, each representing a unique event, were sprayed in the greenhouse with the herbicide treatment 20 g ai/ha S-3100 applied at approximately the V3 stage. Injury ratings were taken 14 days after treatment as the number that were deemed highly tolerant (≤10% injury) or tolerant (≤20% injury).

[5] = tested on: transgenic Brassica napus plants; experiment: Dicamba tolerance in R0 Brassica napus, greenhouse; details: R0 plants with one copy with vector backbone or two copies, tolerant = injury 20% or less, 21 days
Method: Brassica napus variety 65037 Restorer line was used for Agrobacterium-mediated transformation and R0 plants were grown in the greenhouse.
Dicamba tolerance was assessed using R0 plants with one copy of transgene with vector backbone or two copies of transgene. Dicamba tolerance was designated as dicamba injury of 20% or less under greenhouse conditions.
Dicamba tolerance was assessed on R0 plants with a one copy of the transgene. Plants were sprayed in the greenhouse with dicamba (Clarity) at 1 lb ae/acre (2× rate), and dicamba tolerance was determined 14 to 21 days later.

[6] = construct configuration 17, PPO H_N40, S-3100 80 g ai/ha
[7] = construct configuration 17, PPO H_N90, S-3100 40 g ai/ha
[8] = construct configuration 18, PPO H_N40, S-3100 80 g ai/ha
[9] = construct configuration 19, PPO H_N40, S-3100 80 g ai/ha

B1: WH_PPO: protoporphyrinogen oxidase from Amaranthus tuberculatus (waterhemp), SEQ ID NO:60 (protein, listed as Amaranthus tuberculatus)
chain: MGNISEREEPTSAKRVAVVGAGVSGLAAAYKLKSHGLSVTLFEADSRAGGKLKTVKKDGFIWDEGANTMTESEAEVSSLIDDLGLREKQQLPISQNKRYIARDGLPVLLPSNPAALLTSNILSAKSKLQIMLEPFLWRKHNATELSDEHVQESVGEFFERHFGKEFVDYVIDPFVAGTCGGDPQSLSMHHTFPEVWNIEKRFGSVFAGLIQSTLLSKKEKGGENASIKKPRVRGSFSFQGGMQTLVDTMCKQLGEDELKLQCEVLSLSYNQKGIPSLGNWSVSSMSNNTSEDQSYDAVVVTAPIRNVKEMKIMKFGNPFSLDFIPEVTYVPLSVMITAFKKDKVKRPLEGFGVLIPSKEQHNGLKTLGTLFSSMMFPDRAPSDMCLFTTFVGGSRNRKLANASTDELKQIVSSDLQQLLGTEDEPSFVNHLFWSNAFPLYGHNYDSVLRAIDKMEKDLPGFFYAGNHKGGLSVGKAMASGCKAAELVISYLDSHIYVKMDEKTA
Knockout E. coli strain
  growth of knockout E. coli strain expressing the PPO in the presence of a PPO herbicide: sensitive

B2: APG6: Arabidopsis thaliana albino and pale green (APG6) chloroplast transit peptide, SEQ ID NO:1, tested linked to DMO or PPO (protein, listed as Arabidopsis thalinana)
chain: MATATTTATAAFSGVVSVGTETRRIYSFSHLQPSAAFPAKPSSFKSLKLKQSARLTRRLDHRPFVVRC
[1]; [6]
  ≤10% injury (percent of plants): (37.5%)
  ≤10% injury (plants of total sprayed): 42/112
  ≤20% injury (percent of plants): (58%)
  ≤20% injury (plants of total sprayed): 65/112
[1]; [7]
  ≤10% injury (percent of plants): (49.1%)
  ≤10% injury (plants of total sprayed): 55/112
  ≤20% injury (percent of plants): 56.3%)
  ≤20% injury (plants of total sprayed): 63/112
[1]; [8]
  ≤10% injury (percent of plants): (40.2%)
  ≤10% injury (plants of total sprayed): 45/112
  ≤20% injury (percent of plants): (58.9%)
  ≤20% injury (plants of total sprayed): 66/112
[1]; [9]
  ≤10% injury (percent of plants): (21.4%)
  ≤10% injury (plants of total sprayed): 12/56
  ≤20% injury (percent of plants): (41.1%)
  ≤20% injury (plants of total sprayed): 23/56
[2]
  dicamba % Injury, V4 stage: 2.6%
[3]
  Dicamba Injury, V4 stage: 3.6%
[4]
  ≤10% injury (events of total, highly tolerant): 3/14
  ≤10% injury (percent of unique events): 21.4%
  ≤20% injury (events of total, tolerant): 8/14
  ≤20% injury (percent of unique events): 57.1%
[5]; dicamba 1 lb ae/acre
  2X Tolerant events: 7/14
[5]; dicamba 2 lb ae/acre
  4X Tolerant events: 6/18
